In US20240279309A1:
“And” between values parts separate entries of the source, which are not always exact repeats. Identical values can stand only once.

Biological target: CD40 receptor on cells (HEK293 reporter cells expressing CD40; primary human B cells) (human) (UniProt P25942)
Assay: cell-based or functional assay

CD40 receptor on cells (HEK293 reporter cells expressing CD40; primary human B cells) (human), sequence (P25942 21-277): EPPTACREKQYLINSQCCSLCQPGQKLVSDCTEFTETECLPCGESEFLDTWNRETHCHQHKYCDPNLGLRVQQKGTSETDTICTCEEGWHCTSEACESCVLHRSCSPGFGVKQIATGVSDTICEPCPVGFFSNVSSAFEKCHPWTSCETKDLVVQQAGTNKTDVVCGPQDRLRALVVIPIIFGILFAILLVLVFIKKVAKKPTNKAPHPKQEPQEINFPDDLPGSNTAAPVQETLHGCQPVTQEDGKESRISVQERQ
anti-CD40 monoclonal antibody corresponding to sequence 21.4.1 of U.S. Pat. No. 7,338,660 B2, sequence (VH): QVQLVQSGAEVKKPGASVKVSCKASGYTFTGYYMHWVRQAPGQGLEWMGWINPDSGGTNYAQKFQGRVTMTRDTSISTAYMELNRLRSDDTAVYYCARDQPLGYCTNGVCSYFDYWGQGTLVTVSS
anti-CD40 monoclonal antibody corresponding to sequence 21.4.1 of U.S. Pat. No. 7,338,660 B2, sequence (VL): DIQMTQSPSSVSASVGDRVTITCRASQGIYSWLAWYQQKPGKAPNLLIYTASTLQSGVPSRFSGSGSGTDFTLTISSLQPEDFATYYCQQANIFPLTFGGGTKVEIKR

EC50 [nM], % CD86, human B cells with FAP-CHO, w HSA: 0.88 nM and 0.3 nM | EC50 [nM], % CD86, human B cells with FAP-CHO, w/o HSA: 1.9 nM and 0.51 nM | EC50 [nM], MFI CD86, human B cells with FAP-CHO, w HSA: 0.51 nM and 2.05 nM | EC50 [nM], MFI CD86, human B cells with FAP-CHO, w/o HSA: 1.13 nM and 4.73 nM | Efficacy [MFI at highest dose], MFI CD86, human B cells with FAP-CHO, w HSA: 1530 MFI and 1870 MFI | Efficacy [MFI at highest dose], MFI CD86, human B cells with FAP-CHO, w/o HSA: 1340 MFI and 2060 MFI | Efficacy [MFI at highest dose], MFI CD86, human B cells with WT-CHO (no FAP), w HSA: 1470 MFI and 1900 MFI | Efficacy [MFI at highest dose], MFI CD86, human B cells with WT-CHO (no FAP), w/o HSA: 1390 MFI and 2050 MFI
Substance: anti-CD40 monoclonal antibody corresponding to sequence 21.4.1 of U.S. Pat. No. 7,338,660 B2
